Measured values from the RNAGym collection of RNA variant scans (doi:10.7554/elife.90254).

B1: LINE1-full (parent)
chain: UACGUAGGUGGUUUUCCCCUGAUAGUGCUAAGGGGGCCUGGAAGUUUGGACUGGGCAGAGCUCAACACAGCGUGGCAAAGUGGCUGUGGCUAGACUGCCUCUCUGGAUUCCUCGUCACUCAGCAGGGCAUCUCUGAGAGAAAUGCC

Variants of: B1
Assay: self-cleavage, relative activity (ratio to wild type); higher = more cleavage; in vitro, sequencing; the parent is a self-cleaving ribozyme
With UACGUAGGUGGUUUUCCCCAGAUAGUGCUAAGGGGGCCUGGAAGUUUGGACUGGGCAGAGCUCAACACAGCGUGGCAAAGUGGCUGUGGCUAGACUGCCUCUCUGGAUUCCUCGUCACUCAGCAGGGCAUCUCAGAGAGAAAUGCC [U20A U134A] the self-cleavage was 0.92. UACGUAGGUGGUUUUCCCCUGAUAGCGUUAAGGGGGCCUGGAAGUUUGGACUGGGCAGAGCUCAACACAGCGUGGCAAAGUGGCUGUGGCUAGACUGCCUCUCUGGAUUCCUCGUCACUCAGCAGGGCAUCUCUGAGAGAAAUGCC [U26C C28U] showed a self-cleavage of 1.15. UACGUAGGUGGUUUUCCCCUGAUAGUGCUAAGGGGGCCUGGAAGUUUGGACUGGGCAGAGCUCAACAUAGCGUGGCAAAGUGGCUGUGGCUAGACUGCCUCUCUGGAUUCCUCGUCACUCAGCAGGGCAUCUCAGAGAGAAAUGCC [C68U U134A] gave a self-cleavage of 0.18. In the case of UACGUAGGUGGUUUUCCCCUGAUAGUGCUAAGGGGGCCUGGAAGUUUGGACUGGGCAGAGCUCAACACAGCGUGGCAAAGUGGCUGUGGCUAGACCGCCUCUCUGGAUGCCUCGUCACUCAGCAGGGCAUCUCUGAGAGAAAUGCC [U96C U109G], the self-cleavage is reported as 0.16. Variant UACGUAGGUGGUUUUCCCCUGAUAGUGCUAAGGGGGCCUGGAAGUUUGGACUGGGCAGAGCUCAUCACAGCGUGGCAAAGUGGCUGUGGCUAGACUGCCUCUCUGGAUUCCUCGUCACUCAGCAGGGCAUCUCAGAGAGAAAUGCC [A65U U134A] has a self-cleavage of 0.13. Work on UACGUAGGUGGUUUUCCCCUGAUAGUGCUAAGGGGGCCUGGAAGUUUGGACUGGGCAGUGCUCAACACAGCGUGGCAAAGUGGCUGUGGCUAGACUGCCUCUCUGGAUUCCUCGUCACCCAGCAGGGCAUCUCUGAGAGAAAUGCC [A59U U119C] yielded a self-cleavage of 0.6. UACGUAGGUGGUUUUCCCCUGAUAGUGCUAAGGGGGCCUGGAAGUUUGGACUGGGCAGAGCUCAACACAGCGUGGCAAAGUGGUUGUGGCUAGACUGCCUCUCUGGAUUCCUCGUCACUCAGCUGGGCAUCUCUGAGAGAAAUGCC [C84U A124U] gave a self-cleavage of 0.18. Variant UACGUAGGUGCUUUUCCCCAGAUAGUGCUAAGGGGGCCUGGAAGUUUGGACUGGGCAGAGCUCAACACAGCGUGGCAAAGUGGCUGUGGCUAGACUGCCUCUCUGGAUUCCUCGUCACUCAGCAGGGCAUCUCUGAGAGAAAUGCC [G11C U20A] has a self-cleavage of 0.54. For CACGUAGGUGGCUUUCCCCUGAUAGUGCUAAGGGGGCCUGGAAGUUUGGACUGGGCAGAGCUCAACACAGCGUGGCAAAGUGGCUGUGGCUAGACUGCCUCUCUGGAUUCCUCGUCACUCAGCAGGGCAUCUCUGAGAGAAAUGCC [U1C U12C], the self-cleavage was 0.78. UACGUAGGUGGUUUUCCCCUGAUAGUGCUAAGGGGGCCUGGAAGUUUGGACUGGGCAGAGCUCAACACAGCGUGGCAGAGUGGCUGUGGCUAGACUGCCUCUCUGGAUUCCUCGUCACUCAGCAGGGCAUCUCUGAGGGAAAUGCC [A78G A138G] gave a self-cleavage of 1.69. With UACGUAGGUGGUUUUCCCCUGAUAGUGCUAAGGGGGCCUGGAAGUUUGGACUGGGCAGAGCUCAACACAGCGUGGCAAAGUGGCUGUGGCUAGACUGCCUCUCUGGAUUCCUCGUCACUCAGCAGGGCAUCUCUGAGAGAACUGCC [A142C] the self-cleavage was 0.53. Variant UACGUAGGUGGUUUUCCCCUGAUAGUGCUAAGGGGGCCUGGAAGUUUGGACUGGGCAGAGCUCAACACAGCGUGGCAAAGUGGCUGUGGCUAGACUGCCUCUCUGGAUUCCUCGCCACUCAGCAGGGCAUCUCUGAGAGAAUUGCC [U115C A142U] has a self-cleavage of 1.56. UACGUAGGUGGUUUUCCCCUGAUAGUGCUAAGGGGGCCUGGAAGUUUGGACUGGGCAGAGCUCAACACAGCGUGGCAGAGCGGCUGUGGCUAGACUGCCUCUCUGGAUUCCUCGUCACUCAGCAGGGCAUCUCUGAGAGAAAUGCC [A78G U81C] gave a self-cleavage of 1.62. UACGUAGGUGGUUUUCCCCUGAUAGUGCUACGGGGGCCUGGAAGUUUGGACUGGGCAGAGCUCAACACAGCGUGGCAAAGUGGCUGUGGCUAGACUGCCUCUCUGGAUUCCUCGUCACUCAGCAGGGCAUCUCAGAGAGAAAUGCC [A31C U134A] showed a self-cleavage of 1.26. In the case of UACGUAGGUGGUUUUCCCCCGAUAGUGCUAAGGGGGCCUGGAAGUUUGGACUGGGCAGAGCUCAACACAGCGUGGCAAAGUGGCUGUGGCUAGACUGCCUCUCUGGAUUCCGCGUCACUCAGCAGGGCAUCUCUGAGAGAAAUGCC [U20C U112G], the self-cleavage is reported as 0.54. Work on UACGUAGGUGGUUUUCCCCUGAUAGUGCUAAGGGGGCCUGGAAGUUUGGACUGGGCAGAGCUCAACACAGCGUGGCAAAGUGGCUGUGGCUGGACUGCCUCUCUGGAUUCCUCGUCACUCAGCAGGGCAUCUCUGAGAGAAAUGCU [A92G C146U] yielded a self-cleavage of 0.07. UACGUAGGUGGUUUUCCCCUGAUAGUGCUAAGGGGGCCUGGAAGUUUGGUCCGGGCAGAGCUCAACACAGCGUGGCAAAGUGGCUGUGGCUAGACUGCCUCUCUGGAUUCCUCGUCACUCAGCAGGGCAUCUCUGAGAGAAAUGCC [A50U U52C] showed a self-cleavage of 0.89. Variant UACGUAGGUGGUUUUCCCCUGAUAGUGCUAAGGGGGCCUGGAAGUUUGGACUGGGCAGAGCUCAACACAGCGUGACAAAGUGGCUGUGGCUAGACUGCCUCUCUGGAUCCCUCGUCACUCAGCAGGGCAUCUCUGAGAGAAAUGCC [G75A U109C] has a self-cleavage of 1.1. Variant UACGUAGGUGGUUUUCCCCUGAUUGUGCUAAGGGGGCCUGGAAGUUUGGACUGGGCAGAGCUCAACACAGCGUGGCAAAGUGGCUGUGGCUAGACUGCCUCUCUGGAUUCCUCGUCACUCAUCAGGGCAUCUCUGAGAGAAAUGCC [A24U G122U] has a self-cleavage of 1.33. In the case of UACGUAGGUGGUUUUCCCCUGAUAGUGCUAAGGGGGCCUGGAAGUUUGGACUGGGCAGAGCUCAACACAGCGAGGCAAAGUGGCUGUGGCUAGCCUGCCUCUCUGGAUUCCUCGUCACUCAGCAGGGCAUCUCUGAGAGAAAUGCC [U73A A94C], the self-cleavage is reported as 0.05. UACGUAGGUGGUUUUCCCCUGAUAGUGCUAAGGGGGCCUGGAAGUUUGGACUGGGCAGAGCUCAACACAGCGUGGCAAAGUGGCUGUGGCUAGACUGCCUCUCUGGAUUCCGCGUCACUCAGCAGGGCAUCUCUGUGAGAAAUGCC [U112G A136U] showed a self-cleavage of 0.88. In the case of AACGUAGGUGGUUUUCCCCUGAUAGUGCUAAGGGGGCCUGGAAGUUUGGACUGGGCAGAGCUCAACACAGCGUGGCAAAGUGGCUGUGGCUAGACUGCCUCUCUGGAUUCCUCGUCACUCAGCAGGGCCUCUCUGAGAGAAAUGCC [U1A A129C], the self-cleavage is reported as 2.51. Variant UACGUAGGUGGUUUUCCCCUGAUAGUGCUAAGGGGGGCUGGAAGUUUGGACUGGGCAGAGCUCAACACAGCGUGGCAAGGUGGCUGUGGCUAGACUGCCUCUCUGGAUUCCUCGUCACUCAGCAGGGCAUCUCUGAGAGAAAUGCC [C37G A79G] has a self-cleavage of 0.85. UACGUAGGUGGUUUUCCCCUGAUAGUGCUAUGGGGGCCUGGAAGUUUGGACUGGGCAGAGCUCAACACAGCGUGGCAAAGUGGCUGUGGCUAGACUGCCUCUCUGGAUUCCUCGUCACUCAGCAGGGCAUCUCUGAGAGGAAUGCC [A31U A140G] showed a self-cleavage of 0.81. For UACGUAGGUGGUUUUCCCCUGAUAGUGCUAAGGGGGCCUGGAAGUUUGGACUGGGCAGAGCUCAACACAGCGUGGCAAAGUGGCUGUGGCUAGACUGCCUCUCGGGAUUCCUCGUCACUCAGCAGGGCAUCUCUGAGAGCAAUGCC [U104G A140C], the self-cleavage was 0.28. UACGUAGGUGGUUUUCCCCUGAUAGUGCUAAGGGGGCCUGGAAGUUUGGACUGGGCAGAGCUCAACACAGCGUGGCAAAGUGGCUGUGGCUAGACUGCCACUCUGGACUCCUCGUCACUCAGCAGGGCAUCUCUGAGAGAAAUGCC [U100A U108C] showed a self-cleavage of 1.96. Variant UACGUAGGUGGUUUUCCCCUGAUAGUGCUAUGGGGGCCUGGAAGUUUGGACUGGGCAGAGCUCAACACAGCGUGGCAAAGUGGCUGUGGCUAGACUGCCACUCUGGAUUCCUCGUCACUCAGCAGGGCAUCUCUGAGAGAAAUGCC [A31U U100A] has a self-cleavage of 0.67. For UACGUAGGUGGUUUUCCCCUGAUAGUGCUAAGGGGGCCUGGAAGUUUGGACUGGGCGGAGCUCAACACAGCGUGGCAAAGUGGCUGUGGCUAGACUGCCUCUCUGGAUUCCUCGUCACUCAGCAGGGCAUCUCUGAGAGGAAUGCC [A57G A140G], the self-cleavage was 0.91. With UACGUAGGUGGUUUUCCCCUGAUAGUGCUAAGGGGGCCUGGAAGUUUGGACUGGGCAGAGCUCCACGCAGCGUGGCAAAGUGGCUGUGGCUAGACUGCCUCUCUGGAUUCCUCGUCACUCAGCAGGGCAUCUCUGAGAGAAAUGCC [A64C A67G] the self-cleavage was 0.04. Work on UACGUAGGUGGUUUUCCCCUGAUAGUGCUAAGGGGGCCUGGAAGUUUGGACUGGGCAGAGCUCAACACAGCGUGGCAAAGUGGCUGUUGCUAGACUGCCUCUCCGGAUUCCUCGUCACUCAGCAGGGCAUCUCUGAGAGAAAUGCC [G88U U104C] yielded a self-cleavage of 0.05. For UACGUAGGUGGUUUUCCCCUGAUAGUGCUUAGGGGGCCUGGAAGUUUGGACUGGGCAGAGCUCAACACAGCGUGGCAAAGUGGCUGUGGCUAGACUGCCUCUCUGGAUUCCUCGUCACCCAGCAGGGCAUCUCUGAGAGAAAUGCC [A30U U119C], the self-cleavage was 0.5. Variant UACGUAGGUGGUUUUCCCCUGAUAGUGCUAAGGGGGCCUGGAAGUUUGGACUGGGCAGAGCUUAACACAGCGUGGCAAAGUGGCUGUGGCUAGACUGCCUCUCUGGAUUCCUCGUCACUCAGCAGGGCGUCUCUGAGAGAAAUGCC [C63U A129G] has a self-cleavage of 0.3. Work on UACGUAGGUGGUUUUCCCCUGGUAGUGCUAAGGGGGCCUGGAAGUUUGGACUGGGCAGAGCUCAACACAGCGUGGCAAAGUGGCUGUGGCUAGACUGCCUCUCUGGAUUCCUCGUCACUCAGCAGGGCAUCUCUGAGAGAAAAGCC [A22G U143A] yielded a self-cleavage of 1.19. UACGUAGGUGGUUUUCCCCUGAUAGUGCUAAGGGGCCCUGGAAGUUUGGACUGGGCAGAGCUCAACACAGCGUGGCAAAGUGGCUGUGGCUAGACUGCCUCUCUGGAUUCCUCGUCACUCAGCAGGGCAUCUCUGAGAGAAAUGCC [G36C] gave a self-cleavage of 1.07. With UACGUAGGUGGUUUUCCCAUGAUAGUGCUAAGGGGGCCUGGAAGUUUGGACUGGGCAGAGCUCAACACAGCGUGGCAAAGUGGCUGUGGCUAGACUGCCUCUCUGGACUCCUCGUCACUCAGCAGGGCAUCUCUGAGAGAAAUGCC [C19A U108C] the self-cleavage was 1.46. UACGUAGGUGGUUUUCCCCUGAUAGUGCUAAGGGGGCCUGGAAGGUUGGACUGGGCAGGGCUCAACACAGCGUGGCAAAGUGGCUGUGGCUAGACUGCCUCUCUGGAUUCCUCGUCACUCAGCAGGGCAUCUCUGAGAGAAAUGCC [U45G A59G] gave a self-cleavage of 0. Variant UACGUAGGUGGUUUUCCCCUGAUAGUGCUAAGGGGACCUGGAAGUUUGGACUGGGCAGAGCUCAACACAGCGUGGCAAAGUGGCUGUGGCUAGACUGCCUCUCUGGAUUCCUCGUCACUCAGCAGGGCAUCUCUGAGGGAAAUGCC [G36A A138G] has a self-cleavage of 1.53. Work on UACGUAGGUGGUUCUCCCCUGAUAGUGCUAAGGGGGCCUGGAAGUUUGGACUGGGCAGAGCUCAACACAGCAUGGCAAAGUGGCUGUGGCUAGACUGCCUCUCUGGAUUCCUCGUCACUCAGCAGGGCAUCUCUGAGAGAAAUGCC [U14C G72A] yielded a self-cleavage of 1.23. With UACGUAGGUGGUUCUCCCCUGAUAGUGCUAAGGGGGCCUGGAAGUUUGGACUGGGCGGAGCUCAACACAGCGUGGCAAAGUGGCUGUGGCUAGACUGCCUCUCUGGAUUCCUCGUCACUCAGCAGGGCAUCUCUGAGAGAAAUGCC [U14C A57G] the self-cleavage was 0.89.
